Target: T1, EpCAM on KatoIII cells (human, UniProt P16422 24-314)
T1 sequence (looked up): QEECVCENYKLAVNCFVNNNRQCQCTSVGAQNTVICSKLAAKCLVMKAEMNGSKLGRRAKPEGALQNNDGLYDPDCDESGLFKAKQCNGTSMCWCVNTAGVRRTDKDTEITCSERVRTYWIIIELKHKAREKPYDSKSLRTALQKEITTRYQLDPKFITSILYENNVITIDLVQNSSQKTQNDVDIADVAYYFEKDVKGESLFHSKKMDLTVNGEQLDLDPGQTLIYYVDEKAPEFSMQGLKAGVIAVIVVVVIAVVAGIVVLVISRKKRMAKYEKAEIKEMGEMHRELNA
Test: cell-based or functional assay

B1: EpCAMxCD3 bispecific single chain antibody MT110 (bispecific antibody)
chain: ELVMTQSPSSLTVTAGEKVTMSCKSSQSLLNSGNQKNYLTWYQQKPGQPPKLLIYWASTRESGVPDRFTGSGSGTDFTLTISSVQAEDLAVYYCQNDYSYPLTFGAGTKLEIKGGGGSGGGGSGGGGSEVQLLEQSGAELVRPGTSVKISCKASGYAFTNYWLGWVKQRPGHGLEWIGDIFPGSGNIHYNEKFKGKATLTADKSSSTAYMQLSSLTFEDSAVYFCARLRNWDEPMDYWGQGTTVTVSSGGGGSDVQLVQSGAEVKKPGASVKVSCKASGYTFTRYTMHWVRQAPGQGLEWIGYINPSRGYTNYADSVKGRFTITTDKSTSTAYMELSSLRSEDTATYYCARYYDDHYCLDYWGQGTTVTVSSGEGTSTGSGGSGGSGGADDIVLTQSPATLSLSPGERATLSCRASQSVSYMNWYQQKPGKAPKRWIYDTSKVASGVPARFSGSGSGTDYSLTINSLEAEDAATYYCQQWSSNPLTFGGGTKVEIK
**Q.** Which results are given for B1?
**A.** EC50 of CD25 upregulation on CD4+ T lymphocytes, human PBMC with 0.2% KatoIII cells, 40 h, flow cytometry: 3.5 ng/mL; EC50 of CD25 upregulation on CD4+ T lymphocytes, human PBMC with 2% KatoIII cells, 40 h, flow cytometry: 2.35 ng/mL; EC50 of CD25 upregulation on CD4+ T lymphocytes, human PBMC with 10% KatoIII cells, 40 h, flow cytometry: 0.8 ng/mL; EC50 of CD25 upregulation on CD8+ T lymphocytes, human PBMC with 0.2% KatoIII cells, 40 h, flow cytometry: 5.98 ng/mL; EC50 of CD25 upregulation on CD8+ T lymphocytes, human PBMC with 2% KatoIII cells, 40 h, flow cytometry: 0.99 ng/mL; EC50 of CD25 upregulation on CD8+ T lymphocytes, human PBMC with 10% KatoIII cells, 40 h, flow cytometry: 0.26 ng/mL

Source: patent publication US20120244161A1 (published 2012)
